Source: patent publication US12365710B2, “HMGB1 protein derivatives for the removal of biofilms” (RESEARCH INSTITUTE AT NATIONWIDE CHILDREN'S HOSPITAL, priority 2018, dated 2025)
Read-outs that look alike come from different tables or passages of the source.

Test system: B. cenocepacia
Format: in vivo, C57BL/6 mice
Conditions: for Bc CFU in lung tissue / Bc CFU in BAL: 10^7 CFU Bc i.t. with 0.2 nmol protein simultaneously, 18 h; for Bc CFU in lung tissue: data not shown, P<0.05; for Bc CFU in BAL: vs control mice; for aggregate biofilm formation / development in vivo: lung model, 0.2 nmol given simultaneously with Bc; for lung damage, H&E histology: mouse, in vivo
Protocol: FIGS. 7A-7G: HMGB1 promotes clearance of S. cenocepaca from mice without inducing sepsis. C57BL/6 mice were challenged with 10^7 CFU intratracheally, and either simultaneously (prevention) or 24 h later (treatment) received 0.2 nmol of HMGB1 valiant. (FIG. 7A) Aggregates of B. cenocepacia were visible by fluorescence microscopy in lung sections probed with an α-B. cenocepacia antibody. For prevention, (FIG. 7B) bronchoalveolar lavage (BAL) collected 18 h post-inoculation (hpi) was analyzed for CFU. (FIG. 7C) Neutrophils in BAL were quantified by differential cell counting. (FIG. 7D) Lung tissue collected 72hpi was fixed, embedded, sectioned, and stained with hematoxylin & eosin (10× magnification). For treatment, 72hpi (FIG. 7E) CFUs were quantified in BAL. (FIG. 7F) Neutrophil recruitment was analyzed 24 h after intraperitoneal (i.p.) administration of HMGB1 valiants by fluorescence-activated cell sorting of peritoneal lavage stained with α-CD45, α-CD11b, and αLy-6G. (FIG. 7G) Serum TNF-α. was measured by ELISA in mice injected i.p. with 0.2 nmol HMGB1 valiants, 5 mg/kg LPS, or both. LoD: limit of detection. Bars represent SD. *P<0.05.
Applicant's novel approach of using a non-antimicrobial agent like HMGB1 protein and its variants for the treatment of biofilm related infections epitomizes a radical departure from classic therapeutic concepts. Full length HMGB1 and the smallest variant tested to date with the greatest disruption activity found in vitro, B Box and the modified B Box (mB Box) where the cysteine at position 106 was mutated to a serine to abrogate its inflammatory inducing ability, were tested in vivo for biofilm disruption and inflammatory activity (FIG. 7).
rHMGB1 and mHMGB1 disrupt biofilms in two distinct animal models but the inflammatory response is strongly attenuated with Cys to Ser mutations: Applicant tested both rHMGB1 and mHMGB1 for their ability to treat middle ear infection and the corresponding inflammatory response using a well-established chinchilla model of experimental OM due to NTHI49,67,68 wherein adhered mucosal biofilm formation plays a key role in pathogenesis (FIG. 8A). The middle ear of mixed sex, outbred adult chinchillas were inoculated with 1000 CFU NTHI by transbullar injection. At days 4 and 5 post-challenge, at which time there is abundant biofilm present in the middle ear space, […] of rHMGB1, mHMGB1, or diluent was delivered directly to the middle ear (2 total treatments). On day 6, animals were sacrificed and middle ears were imaged and blindly scored for biofilm that remained (FIG. 8A) and mucosal inflammation (FIG. 8B). […] In contrast, MEFs from mHMGB1-treated animals had increased anti-inflammatory cytokines [IL-4 (2-fold), IL-10 (5-fold)] […] Next, Applicant determined whether rHMGB1 or mHMGB1 could prevent or […] biofilm development. For prevention, adult C57BL/6 mice were challenged with 10^7 CFU of Bc intratracheally (i.t.), and 0.2 nmol of rHMGB1 or mHMGB1 was added simultaneously. After 18 h, mice were euthanized, and bronchoalveolar lavage (BAL) and lungs were collected. Bc formed aggregates that were readily visible in lung sections probed with Bc antibody (FIG. 7A). Tissue was homogenized and CFUs were enumerated. […] This same animal model was then used to investigate lung damage 72 h post-challenge with Bc and administration of rHMGB1 or mHMGB1. Lungs were collected and tissue was fixed, embedded in paraffin, sectioned, and stained with Haematoxylin and Eosin (H&E). […] Next, Applicant assessed the ability of rHMGB1 and mHMGB1 to treat established Bc infection. Mice were challenged as above and 0.2 nmol rHMGB1 or mHMGB1 was administered 24 h later. 48 h after treatment, mice were euthanized and BAL and lungs were collected and processed as above. […] To further validate the reduced pro-inflammatory activity of mHMGB1, Applicant used an in vivo model of chemotaxis to determine relative ability to recruit neutrophils70,71. […]

| Molecule | Bc CFU in lung tissue | Bc CFU in BAL | aggregate biofilm formation / development in vivo | lung damage, H&E histology | aggregate biofilm formation / development in vivo (listed as B Box) | aggregate biofilm formation / development in vivo (listed as B box) | inflammatory response in the lung model (0.2 nmol) |
| --- | --- | --- | --- | --- | --- | --- | --- |
| rHMGB1: tagless human recombinant full length HMGB1 (1-215) expressed in E. coli | significantly fewer | significantly fewer Bc in BAL | prevent biofilm formation in vivo | severe inflammation and an increased neutrophil response | – | – | – |
| B-linker Box: HMGB1 B Box with N- and C-terminal linker (80-179; 80 to 176 in b258), 97 amino acid (protein, UniProt P09429 80-179, looked up, fragment) PPKGETKKKFKDPNAPKRPPSAFFLFCSEYRPKIKGEHPGLSIGDVAKKLGEMWNNTAADDKQPYEKKAAKLKEKYEKDIAAYRAKGKPDAAKKGVVKAE | – | decreased CFU in BAL | – | – | inhibit biofilm development in vivo | prevent biofilm formation in vivo | – |
| mHMGB1: engineered C45S variant of full length rHMGB1 that mimics the reduced form of HMGB1 (protein, UniProt P09429 1-215, looked up, variant C45S, full-length, engineered C45S variant of full length rHMGB1 that mimics the reduced form of HMGB1) MGKGDPKKPRGKMSSYAFFVQTCREEHKKKHPDASVNFSEFSKKSSERWKTMSAKEKGKFEDMAKADKARYEREMKTYIPPKGETKKKFKDPNAPKRPPSAFFLFCSEYRPKIKGEHPGLSIGDVAKKLGEMWNNTAADDKQPYEKKAAKLKEKYEKDIAAYRAKGKPDAAKKGVVKAEKSKKKKEEEEDEEDEEDEEEEEDEEDEDEEEDDDDE | significantly fewer | significantly fewer Bc in BAL | inhibited aggregate biofilm formation | more closely resembled uninfected mouse lungs | – | – | did not enhance the inflammatory response |
